Target: human CD20 on WIL2-S B lymphoblast cells (human) (UniProt P11836)
Assay: cell-based or functional assay

Sequence of UniProt P11836 (P11836 whole entry): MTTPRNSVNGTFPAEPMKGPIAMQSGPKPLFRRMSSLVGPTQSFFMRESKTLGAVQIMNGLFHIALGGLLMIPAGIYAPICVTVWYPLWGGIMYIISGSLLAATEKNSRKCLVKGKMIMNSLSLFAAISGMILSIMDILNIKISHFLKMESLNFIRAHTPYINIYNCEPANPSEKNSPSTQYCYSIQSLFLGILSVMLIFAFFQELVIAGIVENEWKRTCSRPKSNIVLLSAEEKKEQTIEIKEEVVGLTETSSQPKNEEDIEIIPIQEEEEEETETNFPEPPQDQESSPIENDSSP

Rituximab (antibody)
CDC activity above background cell lysis at 0.4 µg/mL Rituximab: 25 to 30%
Rituximab concentration at maximal cell lysis (CDC, WIL2-S cells, … GLO): 5 µg/mL
percentage of live cells remaining at 1 µg/mL Rituximab (control): 40%
